Test results: patent US20050042747A1, “Hivgp120-induced bob/gpr15 activation” (priority 2001, published 2005)
Entries after “also recorded” stand apart in the source; their conditions may differ. Read-outs that look alike come from different tables or passages of the source.

Key:
CCR2b = molecular target: T1, CCR2b (Homo sapiens, UniProt P41597); assay: gp120-induced calcium flux, Ghost (3) cells transfected with CCR2b; assay type: cell-based; parameters: key: — = no calcium flux seen at any dilution tested; details: Ghost (3) CCR2b cells
T1 construct: host or cells: Ghost (3) cells (human osteosarcoma, CD4+)
T1 sequence (P41597 1-360 isoform P41597-2): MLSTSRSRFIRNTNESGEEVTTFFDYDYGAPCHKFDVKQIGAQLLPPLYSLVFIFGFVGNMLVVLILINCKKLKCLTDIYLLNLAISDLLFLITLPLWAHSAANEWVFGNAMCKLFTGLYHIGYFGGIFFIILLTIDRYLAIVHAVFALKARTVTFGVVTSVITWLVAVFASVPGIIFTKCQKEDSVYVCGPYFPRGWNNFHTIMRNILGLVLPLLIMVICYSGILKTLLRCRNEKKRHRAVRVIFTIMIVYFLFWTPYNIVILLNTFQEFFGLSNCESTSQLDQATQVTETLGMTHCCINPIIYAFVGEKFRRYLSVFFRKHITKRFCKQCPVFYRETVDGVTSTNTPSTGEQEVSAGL
Text: (§1) Human osteosarcoma cell lines were transfected to express CD4, one or another of the HIV coreceptors, and a Green Fluorescent Protein reporter for active HIV infection, for the purpose of testing which of the known coreceptors was used to induce HIV infection by a given HIV strain (Morner A. J Virol 73:2343-9, 1999 and Deng K Nature 388:296-300, 1997). These cells were obtained from the AIDS Research and Reference Reagent Program, courtesy of Dr. Vineet KewalRamani and Dr. Dan Littman. These cells were grown in DMEM with 10% bovine calf serum supplemented with 0.5 mg/ml G418, 0.1 mg/ml hygromycin, and 1 microgram/ml puromycin, and were used at low passage number (less than 10). We have discovered that these cell lines are also activated by gp120 of certain viral strains, inducing a calcium flux in these cells.
(§2) Within 4 days of plating, coreceptor-transfected Ghost (3) cells (as well as the parent cell line not transfected to express any HIV coreceptors as a control) were put in Locke's medium, then treated with Fluo-4 (5 micrograms/ml for 30 minutes at 37° C.). […] The results are given in the following table, expressed as the minimal concentration of gp120 resulting in a significant calcium flux. […]

Bob = molecular target: T2, Bob (Homo sapiens, UniProt P49685); assay: gp120-induced calcium flux, Ghost (3) cells transfected with Bob (Fluo-4); assay type: cell-based; parameters: key to minimal concentration of gp120 resulting in a significant calcium flux: — = no calcium flux seen at any dilution tested; details: for minimal concentration of gp120 resulting in a significant calcium flux: Ghost (3) Bob cells
T2 construct: host or cells: Ghost (3) cells (human osteosarcoma, also transfected with CD4 and a GFP reporter)
T2 sequence (P49685 1-360): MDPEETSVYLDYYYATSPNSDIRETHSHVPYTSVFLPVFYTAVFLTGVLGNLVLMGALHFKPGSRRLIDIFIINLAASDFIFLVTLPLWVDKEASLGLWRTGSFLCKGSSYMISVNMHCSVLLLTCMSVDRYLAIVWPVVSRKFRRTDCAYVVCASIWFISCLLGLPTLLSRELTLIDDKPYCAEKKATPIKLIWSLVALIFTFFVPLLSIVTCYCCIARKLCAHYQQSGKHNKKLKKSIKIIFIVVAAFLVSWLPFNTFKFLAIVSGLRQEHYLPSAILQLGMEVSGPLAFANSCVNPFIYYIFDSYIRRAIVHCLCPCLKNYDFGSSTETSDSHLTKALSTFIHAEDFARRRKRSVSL
Experimental: (§3) Calcium studies were done on HT-29 cells and Ghost (3) cells loaded with Fluo 4. The cells were placed in Locke's buffer containing 5 μg/ml Fluo 4 AM ester (Molecular Probes) for 20 to 30 minutes, then in Locke's buffer for an additional 30 minutes before testing. Various concentrations of gp120IIIB (X4 trophic), gp120CM235 (R5 trophic), gp120mN (X4 trophic), gp12093TH975 (nonsyncytium-inducing primary isolate from an asymptomatic subject, trophism undetermined but likely R5), and gp120SF2 (X4R5 trophic), ranging from 10 nM to less than 1 pM, were added in Locke's buffer.^6 The gp120 proteins were obtained from the AIDS Research Reagent Referral Program. Some HT-29 cells were given one of the following pretreatments: 50 μg/ml anti-Bob37 overnight, 1 μg/ml pertussis toxin overnight, or 4.6 μg/ml U73122 for one hour. With the HT-29 cells only, similar tests were also performed with SDF-1, MIP-1α, MIP-1β, and RANTES rather than gp120. The cells were visualized every 4 seconds in a confocal microscope, using 488 nm argon laser excitation and detection filters appropriate for fluorescein-like dyes.
as §1
Within 4 days of plating, coreceptor-transfected Ghost (3) cells (as well as the parent cell line not transfected to express any HIV coreceptors as a control) were put in Locke's medium, then treated with Fluo-4 (5 micrograms/ml for 30 minutes at 37° C.). After an additional 30 minute incubation in Locke's buffer at room temperature, the cells were examined in a confocal microscope while gp120 of various viral strains was added, and the cells were examined at 4 second intervals to look for a gp120-induced calcium flux. The results are given in the following table, expressed as the minimal concentration of gp120 resulting in a significant calcium flux. “−” means that no reproducible calcium flux was observed. “ND” means that the gp120 of that viral strain was not tested with the stated coreceptor.
These cells were treated with serial dilutions (100 or 250 nM to at least 1 pM, or even less if calcium fluxes were noted) of gp120. Gp120s from each of four HIV-1 strains: IIIB, CM235, SF2, and […] were used. Listed is the greatest dilution which induced a significant, reproducible calcium flux. The parental line is known to express CXCR4 at very low levels. Those results indicated by an asterisk are thought to represent this artifact.

[1] = test system: Ghost (3) parental cell line; assay: gp120-induced calcium flux, Ghost (3) parental cell line; assay type: cell-based, human; parameters: key: — = no calcium flux seen at any dilution tested
Experimental: as §3, §1
Within 4 days of plating, coreceptor-transfected Ghost (3) cells (as well as the parent cell line not transfected to express any HIV coreceptors as a control) were put in Locke's medium, then treated with Fluo-4 (5 micrograms/ml for 30 minutes at 37° C.). After an additional 30 minute incubation in Locke's buffer at room temperature, the cells were examined in a confocal microscope while gp120 of various viral strains was added, and the cells were examined at 4 second intervals to look for a gp120-induced calcium flux. The results are given in the following table, expressed as the minimal concentration of gp120 resulting in a significant calcium flux. “−” means that no reproducible calcium flux was observed. “ND” means that the gp120 of that viral strain was not tested with the stated coreceptor. […]

CCR1 = molecular target: T3, CCR1 (Homo sapiens, UniProt P32246); assay: gp120-induced calcium flux, Ghost (3) cells transfected with CCR1; assay type: cell-based; parameters: key: — = no calcium flux seen at any dilution tested; details: Ghost (3) CCR1 cells
T3 construct: host or cells: Ghost (3) cells (human osteosarcoma, CD4+)
T3 sequence (P32246 1-355): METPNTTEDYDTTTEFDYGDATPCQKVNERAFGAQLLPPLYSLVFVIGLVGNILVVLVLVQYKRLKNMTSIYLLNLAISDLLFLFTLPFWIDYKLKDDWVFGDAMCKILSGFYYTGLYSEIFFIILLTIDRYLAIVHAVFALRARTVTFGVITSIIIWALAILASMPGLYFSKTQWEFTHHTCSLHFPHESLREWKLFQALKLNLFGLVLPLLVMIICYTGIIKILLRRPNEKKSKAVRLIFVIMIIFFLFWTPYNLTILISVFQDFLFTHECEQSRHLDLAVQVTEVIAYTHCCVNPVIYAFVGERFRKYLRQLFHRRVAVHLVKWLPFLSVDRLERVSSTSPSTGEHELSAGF
Text: as §1, §2

Substance | minimal concentration of gp120 resulting in a significant calcium flux (CCR2b) | Bob activation / calcium signals in Bob-transfected Ghost (3) cells, in words (Bob) | minimal concentration of gp120 resulting in a significant calcium flux (Bob; serial dilutions) | minimal concentration of gp120 resulting in a significant calcium flux ([1]; Ghost (3) parental line (expresses CXCR4 at very low levels)) | minimal concentration of gp120 resulting in a significant calcium flux ([1]; Ghost (3) parental line (expresses CXCR4 at very low levels), listed as IIIB) | minimal concentration of gp120 resulting in a significant calcium flux (CCR1) | minimal concentration of gp120 resulting in a significant calcium flux (Bob; 100 or 250 nM to at least 1 pM) | Bob activation / calcium signals in Bob-transfected Ghost (3) cells, in words (Bob; listed as SF2) | minimal concentration of gp120 resulting in a significant calcium flux ([1]; Ghost (3) parental line)
gp120IIIB: HIV-1 envelope surface protein gp120 of strain IIIB (X4 trophic), from the AIDS Research Reagent Referral Program | 250 nM | extremely potent activator | 15 fM | about 1 nM | 250 nM | — |  |  | 
gp120SF2: gp120 of HIV strain SF2 (X4R5 trophic) | — |  |  |  |  | — | — | do not activate Bob; also recorded: did not cause calcium signals | —
